Tests used:
HeLa Kyoto [1] = assay: solubility in G1/S (NP-40 vs SDS abundance) (log2 ratio); higher = more soluble; details: cell cycle stage: G1/S
HeLa Kyoto [2] = assay: melting temperature (median over replicates), in situ; higher = more thermally stable
HeLa Kyoto [3] = assay: solubility change mitosis vs G1/S (difference of NP-40 vs SDS log2 ratios) (log2 ratio difference); higher = more soluble in mitosis
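Throughout, for melting temperature (median over replicates), in situ: HeLa Kyoto cells synchronized by double thymidine or nocodazole block, proteins quantified by TMT10plex mass spectrometry, three independent biological replicates.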
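Throughout, for solubility change mitosis vs G1/S (difference of NP-40 vs SDS log2 ratios): synchronized HeLa Kyoto cells (double thymidine block for G1/S, nocodazole release for mitosis), protein amounts in NP-40 versus SDS lysates quantified by mass spectrometry, three biological replicates.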
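Throughout, for solubility in G1/S (NP-40 vs SDS abundance): HeLa Kyoto cells arrested at G1/S by double thymidine block, proteins quantified by TMT10plex mass spectrometry in mild NP-40 versus SDS extracts, three biological replicates.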

| Sequence | solubility in G1/S (log2) (HeLa Kyoto [1]) | melting temperature (HeLa Kyoto [2]; cell cycle stage: G1/S) | melting temperature (HeLa Kyoto [2]; cell cycle stage: mitosis) | solubility change mitosis (log2) (HeLa Kyoto [3]) |
| --- | --- | --- | --- | --- |
| MSGLDGVKRTTPLQTHSIIISDQVPSDQDAHQYLRLRDQSEATQVMAEPGEGGSETVALPPPPPSEEGGVPQDAAGRGGTPQIRVVGGRGHVAIKAGQEEGQPPAEGLAAASVVMAADRSLKKGVQGGEKALEICGAQRSASELTAGAEAEAEEVKTGKCATVSAAVAERESAEVVKEGLAEKEVMEEQMEVEEQPPEGEEIEVAEEDRLEEEAREEEGPWPLHEALRMDPLEAIQLELDTVNAQADRAFQQLEHKFGRMRRHYLERRNYIIQNIPGFWMTAFRNHPQLSAMIRGQDAEMLRYITNLEVKELRHPRTGCKFKFFFRRNPYFRNKLIVKEYEVRSSGRVVSLSTPIIWRRGHEPQSFIRRNQDLICSFFTWFSDHSLPESDKIAEIIKEDLWPNPLQYYLLREGVRRARRRPLREPVEIPRPFGFQSG [TSPYL1] | -0.443 | 51.2 °C | 49.9 °C | 0.141 |
| MSLQSRLSGRLAQLRAAGQLLVPPRPRPGHLAGATRTRSSTCGPPAFLGVFGRRARTSAGVGAWGAAAVGRTAGVRTWAPLAMAAKVDLSTSTDWKEAKSFLKGLSDKQREEHYFCKDFVRLKKIPTWKEMAKGVAVKVEEPRYKKDKQLNEKISLLRSDITKLEVDAIVNAANSSLLGGGGVDGCIHRAAGPLLTDECRTLQSCKTGKAKITGGYRLPAKYVIHTVGPIAYGEPSASQAAELRSCYLSSLDLLLEHRLRSVAFPCISTGVFGYPCEAAAEIVLATLREWLEQHKDKVDRLIICVFLEKDEDIYRSRLPHYFPVA [MACROD1] | 0.246 | 50.6 °C | 51.1 °C | -0.147 |
| MSLVDLGKKLLEAARAGQDDEVRILMANGAPFTTDWLGTSPLHLAAQYGHYSTTEVLLRAGVSRDARTKVDRTPLHMAASEGHASIVEVLLKHGADVNAKDMLKMTALHWATEHNHQEVVELLIKYGADVHTQSKFCKTAFDISIDNGNEDLAEILQIAMQNQINTNPESPDTVTIHAATPQFIIGPGGVVNLTGLVSSENSSKATDETGVSAVQFGNSSTSVLATLAALAEASAPLSNSSETPVVATEEVVTAESVDGAIQQVVSSGGQQVITIVTDGIQLGNLHSIPTSGIGQPIIVTMPDGQQVLTVPATDIAEETVISEEPPAKRQCIEIIENRVESAEIEEREALQKQLDEANREAQKYRQQLLKKEQEAEAYRQKLEAMTRLQTNKEAV [GABPB1] | 0.111 | 46.9 °C | 49.7 °C | -0.139 |
| MSQSRHRAEAPPLEREDSGTFSLGKMITAKPGKTPIQVLHEYGMKTKNIPVYECERSDVQIHVPTFTFRVTVGDITCTGEGTSKKLAKHRAAEAAINILKANASICFAVPDPLMPDPSKQPKNQLNPIGSLQELAIHHGWRLPEYTLSQEGGPAHKREYTTICRLESFMETGKGASKKQAKRNAAEKFLAKFSNISPENHISLTNVVGHSLGCTWHSLRNSPGEKINLLKRSLLSIPNTDYIQLLSEIAKEQGFNITYLDIDELSANGQYQCLAELSTSPITVCHGSGISCGNAQSDAAHNALQYLKIIAERK [PRKRA] | 0.0756 | 50.1 °C | 50 °C | 0.0942 |
| MSRKQNQKDSSGFIFDLQSNTVLAQGGAFENMKEKINAVRAIVPNKSNNEIILVLQHFDNCVDKTVQAFMEGSASEVLKEWTVTGKKKNKKKKNKPKPAAEPSNGIPDSSKSVSIQEEQSAPSSEKGGMNGYHVNGAINDTESVDSLSEGLETLSIDARELEDPESAMLDTLDRTGSMLQNGVSDFETKSLTMHSIHNSQQPRNAAKSLSRPTTETQFSNMGMEDVPLATSKKLSSNIEKSVKDLQRCTVSLARYRVVVKEEMDASIKKMKQAFAELESCLMDREVALLAEMDKVKAEAMEILLSRQKKAELLKKMTHVAVQMSEQQLVELRADIKHFVSERKYDEDLGRVARFTCDVETLKKSIDSFGQVSHPKNSYSTRSRCSSVTSVSLSSPSDASAASSSTCASPPSLTSANKKNFAPGETPAAIANSSGQPYQPLREVLPGNRRGGQGYRPQGQKSNDPMNQGRHDSMGRYRNSSWYSSGSRYQSAPSQAPGNTIERGQTHSAGTNGTGVSMEPSPPTPSFKKGLPQRKPRTSQTEAVNS [SPATS2] | -1.01 | 52.2 °C | 51.5 °C | 0.928 |
| MSTGFSFGSGTLGSTTVAAGGTSTGGVFSFGTGASSNPSVGLNFGNLGSTSTPATTSAPSSGFGTGLFGSKPATGFTLGGTNTGIATTITTGLTLGTPATTSAATTGFSLGFNKPAASATPFALPITSTSASGLTLSSALTSTPAASTGFTLNNLGGTTATTTTASTGLSLGGALAGLGGSLFQSTNTGTSGLGQNALGLTLGTTAATSTAGNEGLGGIDFSSSSDKKSDKTGTRPEDSKALKDENLPPVICQDVENLQKFVKEQKQVQEEISRMSSKAMLKVQEDIKALKQLLSLAANGIQRNTLNIDKLKIETAQELKNAEIALRTQKTPPGLQHEYAAPADYFRILVQQFEVQLQQYRQQIEELENHLATQANNSHITPQDLSMAMQKIYQTFVALAAQLQSIHENVKVLKEQYLGYRKMFLGDAVDVFETRRAEAKKWQNTPRVTTGPTPFSTMPNAAAVAMAATLTQQQQPATGPQPSLGVSFGTPFGSGIGTGLQSSGLGSSNLGGFGTSSGFGCSTTGASTFGFGTTNKPSGSLSAGFGSSSTSGFNFSNPGITASAGLTFGVSNPASAGFGTGGQLLQLKKPPAGNKRGKR [NUP58] | 0.542 | 54.1 °C | 52.7 °C | 0.234 |
| MSTGPTAATGSNRRLQQTQNQVDEVVDIMRVNVDKVLERDQKLSELDDRADALQAGASQFETSAAKLKRKYWWKNCKMWAIGITVLVIFIIIIIVWVVSS [VAMP3] | 0.0764 | – | 54.7 °C | -0.16 |
| MTDRYTIHSQLEHLQSKYIGTGHADTTKWEWLVNQHRDSYCSYMGHFDLLNYFAIAENESKARVRFNLMEKMLQPCGPPADKPEEN [SF3B5] | -0.73 | 52.7 °C | 51.1 °C | 0.221 |
| MTELAGASSSCCHRPAGRGAMQSVLHHFQRLRGREGGSHFINTSSPRGEAKMSITSDEVNFLVYRYLQESGFSHSAFTFGIESHISQSNINGTLVPPAALISILQKGLQYVEAEISINEDGTVFDGRPIESLSLIDAVMPDVVQTRQQAFREKLAQQQASAAAAAAAATAAATAATTTSAGVSHQNPSKNREATVNGEENRAHSVNNHAKPMEIDGEVEIPSSKATVLRGHESEVFICAWNPVSDLLASGSGDSTARIWNLNENSNGGSTQLVLRHCIREGGHDVPSNKDVTSLDWNTNGTLLATGSYDGFARIWTEDGNLASTLGQHKGPIFALKWNRKGNYILSAGVDKTTIIWDAHTGEAKQQFPFHSAPALDVDWQNNTTFASCSTDMCIHVCRLGCDRPVKTFQGHTNEVNAIKWDPSGMLLASCSDDMTLKIWSMKQEVCIHDLQAHNKEIYTIKWSPTGPATSNPNSNIMLASASFDSTVRLWDIERGVCTHTLTKHQEPVYSVAFSPDGKYLASGSFDKCVHIWNTQSGNLVHSYRGTGGIFEVCWNARGDKVGASASDGSVCVLDLRK [TBL1X] | -0.043 | – | 52.5 °C | -0.0781 |
| MTGGRFDFDDGGTYCGGWEEGKAHGHGICTGPKGQGEYSGSWSHGFEVVGGYTWPSGNTYQGYWAQGKRHGLGVETKGKWMYRGEWSHGFKGRYGVRQSLCTPARYEGTWSNGLQDGYGVETYGDGGTYQGQWAGGMRHGYGVRQSVPYGMATVIRSPLRTSLASLRSEQSNGSVLHDAAAAADSPAGTRGGFVLNFHADAELAGKKKGGLFRRGSLLGSMKLRKSESKSSISSKRSSVRSDAAMSRISSSDANSTISFGDVDCDFCPVEDHVDATTTETYMGEWKNDKRNGFGVSERSNGMKYEGEWANNKRHGYGCTVFPDGSKEEGKYKNNILVRGIRKQLIPIRHTKTREKVDRAIEGAQRAAAMARTKVEIANSRTAHARAKADAADQAALAARQECDIARAVARELSPDFYQPGPDYVKQRFQEGVDAKENPEEKVPEKPPTPKESPHFYRKGTTPPRSPEASPKHSHSPASSPKPLKKQNPSSGARLNQDKRSVADEQVTAIVNKPLMSKAPTKEAGAVVPQSKYSGRHHIPNPSNGELHSQYHGYYVKLNAPQHPPVDVEDGDGSSQSSSALVHKPSANKWSPSKSVTKPVAKESKAEPKAKKSELAIPKNPASNDSCPALEKEANSGPNSIMIVLVMLLNIGLAILFVHFLT [JPH1] | -0.419 | – | 51.7 °C | 0.108 |
| MTTKDYPSLWGFGTTKTFKIPIEHLDFKYIEKCSDVKHLEKILCVLRSGEEGYYPELTEFCEKHLQALAPESRALRKDKPAATAASFTAEEWEKIDGDIKSWVSEIKKEEDKMHFHETETFPAMKDNLPPVRGSNSCLHVGKEKYSKRPTKKKTPRDYAEWDKFDVEKECLKIDEDYKEKTVIDKSHLSKIETRIDTAGLTEKEKDFLATREKEKGNEAFNSGDYEEAVMYYTRSISALPTVVAYNNRAQAEIKLQNWNSAFQDCEKVLELEPGNVKALLRRATTYKHQNKLREATEDLSKVLDVEPDNDLAKKTLSEVERDLKNSEAASETQTKGKRMVIQEIENSEDEEGKSGRKHEDGGGDKKPAEPAGAARAAQPCVMGNIQKKLTGKAEGGKRPARGAPQRGQTPEAGADKRSPRRASAAAAAGGGATGHPGGGQGAENPAGLKSQGNELFRSGQFAEAAGKYSAAIALLEPAGSEIADDLSILYSNRAACYLKEGNCSGCIQDCNRALELHPFSMKPLLRRAMAYETLEQYGKAYVDYKTVLQIDCGLQLANDSVNRLSRILMELDGPNWREKLSPIPAVPASVPLQAWHPAKEMISKQAGDSSSHRQQGITDEKTFKALKEEGNQCVNDKNYKDALSKYSECLKINNKECAIYTNRALCYLKLCQFEEAKQDCDQALQLADGNVKAFYRRALAHKGLKNYQKSLIDLNKVILLDPSIIEAKMELEEVTRLLNLKDKTAPFNKEKERRKIEIQEVNEGKEEPGRPAGEVSMGCLASEKGGKSSRSPEDPEKLPIAKPNNAYEFGQIINALSTRKDKEACAHLLAITAPKDLPMFLSNKLEGDTFLLLIQSLKNNLIEKDPSLVYQHLLYLSKAERFKMMLTLISKGQKELIEQLFEDLSDTPNNHFTLEDIQALKRQYEL [SPAG1] | 0.51 | 49.2 °C | 48.5 °C | -0.0757 |
| MVGEMETKEKPKPTPDYLMQLMNDKKLMSSLPNFCGIFNHLERLLDEEISRVRKDMYNDTLNGSTEKRSAELPDAVGPIVQLQEKLYVPVKEYPDFNFVGRILGPRGLTAKQLEAETGCKIMVRGKGSMRDKKKEEQNRGKPNWEHLNEDLHVLITVEDAQNRAEIKLKRAVEEVKKLLVPAAEGEDSLKKMQLMELAILNGTYRDANIKSPALAFSLAATAQAAPRIITGPAPVLPPAALRTPTPAGPTIMPLIRQIQTAVMPNGTPHPTAAIVPPGPEAGLIYTPYEYPYTLAPATSILEYPIEPSGVLGAVATKVRRHDMRVHPYQRIVTADRAATGN [QKI] | 0.613 | 50.2 °C | 49.8 °C | -0.0775 |

— the supplement of paper PMC5998384
